{
  "source": "paper PMC7135998",
  "molecular_target": "α-tubulin of purified porcine brain tubulin (porcine) (UniProt P02550)",
  "sequence (P02550 whole entry)": "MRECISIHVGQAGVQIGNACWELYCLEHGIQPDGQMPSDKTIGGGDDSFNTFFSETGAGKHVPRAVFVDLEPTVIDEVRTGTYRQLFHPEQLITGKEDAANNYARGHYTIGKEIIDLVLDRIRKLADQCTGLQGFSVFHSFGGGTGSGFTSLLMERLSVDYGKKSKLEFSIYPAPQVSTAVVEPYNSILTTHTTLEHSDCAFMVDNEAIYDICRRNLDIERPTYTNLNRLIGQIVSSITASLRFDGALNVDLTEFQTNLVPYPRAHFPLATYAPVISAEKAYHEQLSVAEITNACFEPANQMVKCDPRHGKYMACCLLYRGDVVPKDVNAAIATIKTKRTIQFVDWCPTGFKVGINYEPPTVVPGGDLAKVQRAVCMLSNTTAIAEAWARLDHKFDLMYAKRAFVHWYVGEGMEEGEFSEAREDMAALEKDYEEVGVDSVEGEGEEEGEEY",
  "data": [
    {"substance": "LSF present in purified porcine brain tubulin preparations (natural protein)", "values": [
      {"measurement": "methylation of purified tubulin by GST-SET8 ([3H]AdoMet, autoradiogram) with increasing concentrations of the LSF inhibitor FQI1, up to 100 μM", "value": 3, "unit": "fold"}
    ]}
  ]
}
